Test [1] deals with ErbB3 on rat Schwann cells (rat) (UniProt Q62799). In words: cell-based or functional assay.
Test [2] has as its target ErbB4 on neonatal rat cardiomyocytes (rat) (UniProt Q62956). The experiment in a line: cell-based or functional assay.

Values joined by “and” are separate entries in the source; they are usually repeats but may differ in a detail not shown here. Equal entries are not always repeated. Bounds are passed on as bounds.

Chain of ErbB3 on rat Schwann cells (rat) (Q62799 20-1339): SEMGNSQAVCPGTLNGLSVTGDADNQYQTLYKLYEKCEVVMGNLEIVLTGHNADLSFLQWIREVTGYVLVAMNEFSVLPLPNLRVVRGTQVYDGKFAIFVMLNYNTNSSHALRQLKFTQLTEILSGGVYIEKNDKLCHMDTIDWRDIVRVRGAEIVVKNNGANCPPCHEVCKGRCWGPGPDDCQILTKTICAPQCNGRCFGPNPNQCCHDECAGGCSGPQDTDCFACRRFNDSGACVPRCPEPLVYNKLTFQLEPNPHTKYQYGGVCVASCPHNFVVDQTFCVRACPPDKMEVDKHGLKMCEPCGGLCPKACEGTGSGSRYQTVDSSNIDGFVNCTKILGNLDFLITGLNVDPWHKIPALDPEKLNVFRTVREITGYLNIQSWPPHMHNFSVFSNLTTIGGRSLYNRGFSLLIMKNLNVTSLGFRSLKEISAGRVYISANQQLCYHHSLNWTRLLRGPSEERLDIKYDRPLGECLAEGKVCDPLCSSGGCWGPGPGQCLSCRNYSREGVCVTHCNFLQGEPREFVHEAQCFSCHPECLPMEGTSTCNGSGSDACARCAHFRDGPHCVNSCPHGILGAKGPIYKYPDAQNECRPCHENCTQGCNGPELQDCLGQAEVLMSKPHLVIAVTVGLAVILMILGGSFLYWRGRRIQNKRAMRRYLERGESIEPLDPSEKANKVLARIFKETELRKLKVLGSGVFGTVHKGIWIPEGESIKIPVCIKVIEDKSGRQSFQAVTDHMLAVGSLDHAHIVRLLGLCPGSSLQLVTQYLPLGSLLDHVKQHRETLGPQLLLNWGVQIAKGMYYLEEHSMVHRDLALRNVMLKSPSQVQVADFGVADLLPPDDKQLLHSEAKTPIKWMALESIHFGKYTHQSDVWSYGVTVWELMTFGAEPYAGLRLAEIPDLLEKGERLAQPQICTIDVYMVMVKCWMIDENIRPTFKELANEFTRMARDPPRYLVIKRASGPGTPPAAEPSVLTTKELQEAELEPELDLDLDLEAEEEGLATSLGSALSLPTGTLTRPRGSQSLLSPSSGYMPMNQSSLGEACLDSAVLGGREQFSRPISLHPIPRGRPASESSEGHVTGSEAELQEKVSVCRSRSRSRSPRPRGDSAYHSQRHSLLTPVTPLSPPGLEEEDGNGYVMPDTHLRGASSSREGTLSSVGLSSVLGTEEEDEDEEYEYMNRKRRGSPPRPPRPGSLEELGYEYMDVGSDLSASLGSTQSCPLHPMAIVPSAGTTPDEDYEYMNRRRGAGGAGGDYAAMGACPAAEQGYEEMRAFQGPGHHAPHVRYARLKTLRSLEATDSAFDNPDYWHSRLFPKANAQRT
Chain of ErbB4 on neonatal rat cardiomyocytes (rat) (Q62956 26-1308): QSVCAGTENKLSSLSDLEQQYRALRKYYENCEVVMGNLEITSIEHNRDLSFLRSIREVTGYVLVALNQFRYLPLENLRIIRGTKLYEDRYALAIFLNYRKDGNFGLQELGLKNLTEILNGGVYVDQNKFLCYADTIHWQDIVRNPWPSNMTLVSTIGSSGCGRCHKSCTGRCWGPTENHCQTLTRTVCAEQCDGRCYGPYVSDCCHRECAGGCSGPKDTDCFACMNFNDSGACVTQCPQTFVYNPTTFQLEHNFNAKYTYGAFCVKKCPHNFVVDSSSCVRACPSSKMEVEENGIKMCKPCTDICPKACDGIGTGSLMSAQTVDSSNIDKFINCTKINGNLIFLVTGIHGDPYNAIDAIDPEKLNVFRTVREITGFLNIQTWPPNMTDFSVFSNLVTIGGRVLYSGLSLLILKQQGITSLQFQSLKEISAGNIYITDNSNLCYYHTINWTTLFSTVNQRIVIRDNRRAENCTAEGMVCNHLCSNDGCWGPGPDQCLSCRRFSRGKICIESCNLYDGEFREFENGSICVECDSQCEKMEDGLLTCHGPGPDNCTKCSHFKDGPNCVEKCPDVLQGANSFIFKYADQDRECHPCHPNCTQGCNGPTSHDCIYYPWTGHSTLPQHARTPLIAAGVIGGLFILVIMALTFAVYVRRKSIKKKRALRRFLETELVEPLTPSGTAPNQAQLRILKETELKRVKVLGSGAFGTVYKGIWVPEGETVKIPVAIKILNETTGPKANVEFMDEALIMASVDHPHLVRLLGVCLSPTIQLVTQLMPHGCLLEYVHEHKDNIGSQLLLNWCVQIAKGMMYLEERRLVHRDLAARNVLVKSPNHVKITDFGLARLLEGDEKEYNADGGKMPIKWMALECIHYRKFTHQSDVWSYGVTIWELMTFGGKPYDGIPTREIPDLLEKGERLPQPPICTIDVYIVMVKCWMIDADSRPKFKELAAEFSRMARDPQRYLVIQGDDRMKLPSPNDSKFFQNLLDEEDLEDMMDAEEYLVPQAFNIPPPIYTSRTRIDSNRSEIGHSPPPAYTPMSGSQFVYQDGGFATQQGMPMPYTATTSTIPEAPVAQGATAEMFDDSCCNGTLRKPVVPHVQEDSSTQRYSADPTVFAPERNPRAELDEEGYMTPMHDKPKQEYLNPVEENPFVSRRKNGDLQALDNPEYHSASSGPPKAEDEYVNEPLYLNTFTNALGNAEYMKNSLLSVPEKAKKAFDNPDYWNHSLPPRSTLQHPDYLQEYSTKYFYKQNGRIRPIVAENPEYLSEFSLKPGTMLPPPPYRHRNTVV

B1: huNRG1(S177-F229) 6xHis (ligand)
chain: SHLVKCAEKEKTFCVNGGECFMVKDLSNPSRYLCKCPNEFTGDRCQNYVMASFGGGGEGGGGAGGGGHHHHHH
Consider B1, for which, in test [1], the Schwann cells (SC) (ErbB3) Avg EC50 was found to be 3.62 nM. In test [2], this molecule registered a CM % Agonism AVG of 97.5%, a Cardiomyocyte (CM) (ErbB4) Avg EC50 of 0.587 nM and a Selectivity SC/CM of 6.17.

B2: huNRG1(S177-F229)(NRGE1C) 6xHis (ligand)
chain: SHLVKCGEKHKSFCVNGGECFMIEGPSNPSRYLCKCPNEFTGDRCQEDFMASFGGGGEGGGGAGGGGHHHHHH
In the case of B2, the Schwann cells (SC) (ErbB3) Avg EC50 in test [1] worked out at 10000 nM. In test [2], this molecule returned a CM % Agonism AVG of 106%, a Cardiomyocyte (CM) (ErbB4) Avg EC50 of 1.44 nM and a Selectivity SC/CM greater than 10000.

B3: huNRG1(S177-F229)(NRGE1D) (E47T_D48S_F49L_M50L) 6xHis (ligand)
chain: SHLVKCGESHKSFCVNGGECYMVEGSSIPSRYLCKCPNEFTGDRCQTSLLASFGGGGEGGGGAGGGGHHHHHH
With B3, in test [1], the Schwann cells (SC) (ErbB3) Avg EC50 was 10000 nM. In test [2], the CM % Agonism AVG amounted to 99.8%, the Cardiomyocyte (CM) (ErbB4) Avg EC50 turned out to be 0.33 nM and the Selectivity SC/CM was greater than 10000.

B4: huNRG1(S177-F229)(NRGE1C) (E47S_D48T_F49R_M50V) 6xHis (ligand)
chain: SHLVKCGEKHKSFCVNGGECFMIEGPSNPSRYLCKCPNEFTGDRCQSTRVASFGGGGEGGGGAGGGGHHHHHH
On to B4, for which, in test [1], the Schwann cells (SC) (ErbB3) Avg EC50 came out at 10000 nM. Moreover, in test [2], the CM % Agonism AVG worked out at 87.5%, the Cardiomyocyte (CM) (ErbB4) Avg EC50 is 0.58 nM and the Selectivity SC/CM is greater than 10000.

B5: huNRG1(S177-F229)(NRGE1D) (E47V_D48T_F49R_M50L) 6xHis (ligand)
chain: SHLVKCGESHKSFCVNGGECYMVEGSSIPSRYLCKCPNEFTGDRCQVTRLASFGGGGEGGGGAGGGGHHHHHH
Turning to B5, the Schwann cells (SC) (ErbB3) Avg EC50 in test [1] turned out to be 10000 nM. Further, in test [2], the CM % Agonism AVG was found to be 98%, the Cardiomyocyte (CM) (ErbB4) Avg EC50 came to 0.224 nM and the Selectivity SC/CM is greater than 10000.

B6: huNRG1(S177-F229)(NRGE1D) (E47S_D48S_F49E_M50L) 6xHis (ligand)
chain: SHLVKCGESHKSFCVNGGECYMVEGSSIPSRYLCKCPNEFTGDRCQSSELASFGGGGEGGGGAGGGGHHHHHH
In turn, B6 displayed a Schwann cells (SC) (ErbB3) Avg EC50 in test [1] of 10000 nM. In test [2], the CM % Agonism AVG was 96%, the Cardiomyocyte (CM) (ErbB4) Avg EC50 worked out at 0.557 nM and the Selectivity SC/CM is greater than 10000.

B7: huNRG1(S177-F229)(NRGE1C) (E47S_D48A_F49L_M50T) 6xHis (ligand)
chain: SHLVKCGEKHKSFCVNGGECFMIEGPSNPSRYLCKCPNEFTGDRCQSALTASFGGGGEGGGGAGGGGHHHHHH
On to B7, for which the Schwann cells (SC) (ErbB3) Avg EC50 in test [1] came to 10000 nM. For the same molecule, in test [2], the CM % Agonism AVG came out at 85.9%, the Cardiomyocyte (CM) (ErbB4) Avg EC50 is 0.695 nM and the Selectivity SC/CM was greater than 10000.

B8: huNRG1(S177-F229)(NRGE1C) (E47K_D48T_F49S_M50L) 6xHis (ligand)
chain: SHLVKCGEKHKSFCVNGGECFMIEGPSNPSRYLCKCPNEFTGDRCQKTSLASFGGGGEGGGGAGGGGHHHHHH
For the molecule B8, the Schwann cells (SC) (ErbB3) Avg EC50 in test [1] worked out at 10000 nM. In test [2], the CM % Agonism AVG came to 91.8%, the Cardiomyocyte (CM) (ErbB4) Avg EC50 amounted to 0.825 nM and the Selectivity SC/CM is greater than 10000.

B9: huNRG1(S177-F229)(NRGE1C) (D48T_F49Q_M50I) 6xHis (ligand)
chain: SHLVKCGEKHKSFCVNGGECFMIEGPSNPSRYLCKCPNEFTGDRCQETQIASFGGGGEGGGGAGGGGHHHHHH
As for B9, in test [1], the Schwann cells (SC) (ErbB3) Avg EC50 was determined as 10000 nM. Moreover, in test [2], the CM % Agonism AVG turned out to be 106%, the Cardiomyocyte (CM) (ErbB4) Avg EC50 was 0.712 nM and the Selectivity SC/CM is greater than 10000.

B10: huNRG1(S177-F229)(NRGE1D) (E47K_D48L_F49D_M50I) 6xHis (ligand)
chain: SHLVKCGESHKSFCVNGGECYMVEGSSIPSRYLCKCPNEFTGDRCQKLDIASFGGGGEGGGGAGGGGHHHHHH
B10 came in with a Schwann cells (SC) (ErbB3) Avg EC50 in test [1] of 17.2 nM. In test [2], this molecule came in with a CM % Agonism AVG of 91.7%, a Cardiomyocyte (CM) (ErbB4) Avg EC50 of 0.311 nM and a Selectivity SC/CM of 55.4.

B11: huNRG1(S177-F229)(NRGE1C) (E47A_D48P_F49H_M50I) 6xHis (ligand)
chain: SHLVKCGEKHKSFCVNGGECFMIEGPSNPSRYLCKCPNEFTGDRCQAPHIASFGGGGEGGGGAGGGGHHHHHH
B11 displayed a Schwann cells (SC) (ErbB3) Avg EC50 in test [1] of 10000 nM. For the same molecule, in test [2], the CM % Agonism AVG came out at 96.5%, the Cardiomyocyte (CM) (ErbB4) Avg EC50 is 1.1 nM and the Selectivity SC/CM was greater than 10000.

B12: huNRG1(S177-F229)(NRGE1D) 6xHis (ligand)
chain: SHLVKCGESHKSFCVNGGECYMVEGSSIPSRYLCKCPNEFTGDRCQEDFMASFGGGGEGGGGAGGGGHHHHHH
For B12, the Schwann cells (SC) (ErbB3) Avg EC50 in test [1] came to 10000 nM. In test [2], the CM % Agonism AVG was found to be 90.7%, the Cardiomyocyte (CM) (ErbB4) Avg EC50 was 0.39 nM and the Selectivity SC/CM is greater than 10000.

B13: huNRG1(S177-Q237)(NRGE1K)::GG::huFcSEFL2 (Pb) (Fc fusion)
chain: SHLVKCAEKHKSFCVNGGECFMIEGPSNPSRYLCKCPNEFTGDRCQDDFMASFYKAEELYQGGDKTHTCPPCPAPELLGGPSVFLFPPKPKDTLMISRTPEVTCVVVDVSHEDPEVKFNWYVDGVEVHNAKTKPCEEQYGSTYRCVSVLTVLHQDWLNGKEYKCKVSNKALPAPIEKTISKAKGQPREPQVYTLPPSREEMTKNQVSLTCLVKGFYPSDIAVEWESNGQPENNYKTTPPVLDSDGSFFLYSKLTVDKSRWQQGNVFSCSVMHEALHNHYTQKSLSLSPGK
In test [1], B13 showed a Schwann cells (SC) (ErbB3) Avg EC50 greater than 10000 nM. In test [2], this molecule yielded a CM % Agonism AVG of 66%, a Cardiomyocyte (CM) (ErbB4) Avg EC50 of 7.54 nM and a Selectivity SC/CM of 1320.

B14: huNRG1(S177-Q237)(1D3)::GG::huFcSEFL2 (Pb) (Fc fusion)
chain: SHLVKCGENDKSFCVNGGECFVIEDPSIPSRYLCKCPNEFTGDRCQNDFLASFYKAEELYQGGDKTHTCPPCPAPELLGGPSVFLFPPKPKDTLMISRTPEVTCVVVDVSHEDPEVKFNWYVDGVEVHNAKTKPCEEQYGSTYRCVSVLTVLHQDWLNGKEYKCKVSNKALPAPIEKTISKAKGQPREPQVYTLPPSREEMTKNQVSLTCLVKGFYPSDIAVEWESNGQPENNYKTTPPVLDSDGSFFLYSKLTVDKSRWQQGNVFSCSVMHEALHNHYTQKSLSLSPGK
Take B14: the Schwann cells (SC) (ErbB3) Avg EC50 in test [1] was > 10000 nM and 10000 nM. For the same molecule, in test [2], the CM % Agonism AVG is 78%; the Cardiomyocyte (CM) (ErbB4) Avg EC50 is 1.62 nM and 0.772 nM; the Selectivity SC/CM is greater than 10000.

B15: huNRG1(S177-Q237)(NRGE1L)::GG::huFcSEFL2 (Pb) (Fc fusion)
chain: SHLVKCGESHKSFCVNGGECYMVEGSSIPSRYLCKCPNEFTGDRCQDDFMASFYKAEELYQGGDKTHTCPPCPAPELLGGPSVFLFPPKPKDTLMISRTPEVTCVVVDVSHEDPEVKFNWYVDGVEVHNAKTKPCEEQYGSTYRCVSVLTVLHQDWLNGKEYKCKVSNKALPAPIEKTISKAKGQPREPQVYTLPPSREEMTKNQVSLTCLVKGFYPSDIAVEWESNGQPENNYKTTPPVLDSDGSFFLYSKLTVDKSRWQQGNVFSCSVMHEALHNHYTQKSLSLSPGK
Molecule B15 gave a Schwann cells (SC) (ErbB3) Avg EC50 in test [1] greater than 10000 nM. For the same molecule, in test [2], the CM % Agonism AVG stood at 74%, the Cardiomyocyte (CM) (ErbB4) Avg EC50 amounted to 2.29 nM and the Selectivity SC/CM was greater than 4370.

B16: huNRG1(S177-Q237)(NRGE1M)::GG::huFcSEFL2 (Pb) (Fc fusion)
chain: SHLVKCGENDKSFCVNGGECFMIEGPSNPSRYLCKCPNEFTGDRCQDFFMASFYKAEELYQGGDKTHTCPPCPAPELLGGPSVFLFPPKPKDTLMISRTPEVTCVVVDVSHEDPEVKFNWYVDGVEVHNAKTKPCEEQYGSTYRCVSVLTVLHQDWLNGKEYKCKVSNKALPAPIEKTISKAKGQPREPQVYTLPPSREEMTKNQVSLTCLVKGFYPSDIAVEWESNGQPENNYKTTPPVLDSDGSFFLYSKLTVDKSRWQQGNVFSCSVMHEALHNHYTQKSLSLSPGK
Turning to B16, in test [1], the Schwann cells (SC) (ErbB3) Avg EC50 was found to be 1010 nM. Further, in test [2], the CM % Agonism AVG turned out to be 30%, the Cardiomyocyte (CM) (ErbB4) Avg EC50 is 25.6 nM and the Selectivity SC/CM was 39.

B17: huNRG1(S177-Q237)(NRGE1N)::GG::huFcSEFL2 (Pb) (Fc fusion)
chain: SHLVKCGENDKSFCVNGGECYMVEGSSIPSRYLCKCPNEFTGDRCQDFFMASFYKAEELYQGGDKTHTCPPCPAPELLGGPSVFLFPPKPKDTLMISRTPEVTCVVVDVSHEDPEVKFNWYVDGVEVHNAKTKPCEEQYGSTYRCVSVLTVLHQDWLNGKEYKCKVSNKALPAPIEKTISKAKGQPREPQVYTLPPSREEMTKNQVSLTCLVKGFYPSDIAVEWESNGQPENNYKTTPPVLDSDGSFFLYSKLTVDKSRWQQGNVFSCSVMHEALHNHYTQKSLSLSPGK
In the case of B17, in test [1], the Schwann cells (SC) (ErbB3) Avg EC50 was determined as 751 nM. In test [2], this molecule returned a CM % Agonism AVG of 26%, a Cardiomyocyte (CM) (ErbB4) Avg EC50 of 1.73 nM and a Selectivity SC/CM of 435.

B18: huNRG1(S177-Q237)(NRGE1O)::GG::huFcSEFL2 (Pb) (Fc fusion)
chain: SHLVKCGEKHKSFCVNGGECYMVEGSSIPSRYLCKCPNEFTGDRCQDFFMASFYKAEELYQGGDKTHTCPPCPAPELLGGPSVFLFPPKPKDTLMISRTPEVTCVVVDVSHEDPEVKFNWYVDGVEVHNAKTKPCEEQYGSTYRCVSVLTVLHQDWLNGKEYKCKVSNKALPAPIEKTISKAKGQPREPQVYTLPPSREEMTKNQVSLTCLVKGFYPSDIAVEWESNGQPENNYKTTPPVLDSDGSFFLYSKLTVDKSRWQQGNVFSCSVMHEALHNHYTQKSLSLSPGK
With B18, the Schwann cells (SC) (ErbB3) Avg EC50 in test [1] was found to be 546 nM. In addition, in test [2], the CM % Agonism AVG is 27%, the Cardiomyocyte (CM) (ErbB4) Avg EC50 was found to be 1.04 nM and the Selectivity SC/CM worked out at 526.

B19: huNRG1(S177-Q237)(NRGE1P)::GG::huFcSEFL2 (Pb) (Fc fusion)
chain: SHLVKCAESHKSFCVNGGECFMIEGPSNPSRYLCKCPNEFTGDRCQDFFMASFYKAEELYQGGDKTHTCPPCPAPELLGGPSVFLFPPKPKDTLMISRTPEVTCVVVDVSHEDPEVKFNWYVDGVEVHNAKTKPCEEQYGSTYRCVSVLTVLHQDWLNGKEYKCKVSNKALPAPIEKTISKAKGQPREPQVYTLPPSREEMTKNQVSLTCLVKGFYPSDIAVEWESNGQPENNYKTTPPVLDSDGSFFLYSKLTVDKSRWQQGNVFSCSVMHEALHNHYTQKSLSLSPGK
In the case of B19, the Schwann cells (SC) (ErbB3) Avg EC50 in test [1] was 510 nM. In test [2], this molecule showed a CM % Agonism AVG of 28%, a Cardiomyocyte (CM) (ErbB4) Avg EC50 of 2.22 nM and a Selectivity SC/CM of 229.

The record behind these values is patent US20220402985A1.
